Tests used:
[1] = molecular target: T1, huCD47-D1-his (recombinant human CD47 extracellular region D1 with C-terminal His tag) (human (homo sapiens), UniProt Q08722 19-141); test: SPR BIAcore, against hS2C3 as reference
T1 construct: Expressed in HEK293 cells; analyte in the Biacore measurements and antigen of the phage panning; also called huCD47-his; hCD47; not shown: His tag added at the C-terminus

[2] = molecular target: T1, huCD47-D1-his (recombinant human CD47 …); test: SPR BIAcore, by the method of Example 3 (antibody captured, huCD47-D1-his analyte)
[3] = molecular target: T2, hCD47-mFc (human CD47 extracellular region D1 fused to mouse IgG2a Fc) (human (homo sapiens)); test: competition ELISA by the method of Example 3 (hCD47-mFc coated, hCD172a-D1M1-His as competitor)
T2 construct: no linker is stated

[4] = molecular target: T2, hCD47-mFc (human CD47 extracellular …); test: as above; remark: listed apart in the source
[5] = molecular target: T1, huCD47-D1-his (recombinant human CD47 …); test: SPR BIAcore, by the method of Example 3 (antibody captured, huCD47-D1-his analyte); remark: listed apart in the source
[6] = molecular target: T2, hCD47-mFc (human CD47 extracellular …); test: competition ELISA by the method of Example 3 (hCD47-mFc coated, hCD172a-D1M1-His as competitor); remark: listed apart in the source
[7] = molecular target: T1, huCD47-D1-his (recombinant human CD47 …); test: solid-phase phage panning on huCD47-D1-his, three rounds
[8] = molecular target: T2, hCD47-mFc (human CD47 extracellular …); test: competition ELISA: hCD47-mFc coated, fixed hCD172a-D1M1-His as competitor, antibody titrated
[9] = molecular target: T2, hCD47-mFc (human CD47 extracellular …); test: as above; remark: listed apart in the source
[10] = molecular target: T1, huCD47-D1-his (recombinant human CD47 …); test: SPR Biacore X100, antibody captured via anti-human Fc on CM5, huCD47-D1-his as analyte, 25 C

B1: H11E5+L25B8 (affinity-matured variant of hS2C3) (antibody, V domains shown)
VH: QVQLVQSGAEVKKPGASVKVSCKASGYTFTDYYMHWVRQAPGQRLEWMGWIYPSSGNTKYAQKFKDRVTMTRDTSTSTVYMELSSLRSEDTAVYYCARREEDYFDYWGQGTLVTVSS
VL: DIVMTQSPDSLAVSLGERATINCKSSQSLLYSSNKKNYLTWYQQKPGQPPKLLIYWASTRESGVPDRFSGSGSGTDFTLTISSLQAEDVAVYYCQQFYAYPISFGQGTKLEIK
notes: Humanized monoclonal antibody
fold improvement of affinity over hS2C3 [1]: 10 fold
Kd [2]: 0.807 nM
koff [2]: 0.00096 s⁻¹
kon [2]: 1.19e+06 M⁻¹ s⁻¹
IC50 [3]: 4.13 nM
IC50 [4]: < 5 nM

B2: hS2C3-IgG4 (humanized S2C3) (antibody, V domains shown)
VH: QVQLVQSGAEVKKPGASVKVSCKASGYTFTDYYMHWVRQAPGQRLEWMGWINPSSGNTKYAQKFQDRVTMTRDTSTSTVYMELSSLRSEDTAVYYCARREEDYFDYWGQGTLVTVSS
VL: DIVMTQSPDSLAVSLGERATINCKSSQSLLYPSNKKNYLTWYQQKPGQPPKLLIYWASTRESGVPDRFSGSGSGTDFTLTISSLQAEDVAVYYCQEYYAYPLSFGQGTKLEIK
Kd [5]: 10.1 nM
koff [5]: 0.011 s⁻¹
kon [5]: 1.09e+06 M⁻¹ s⁻¹
Kd [2]: 9.55 nM
koff [2]: 0.0103 s⁻¹
kon [2]: 1.08e+06 M⁻¹ s⁻¹
IC50 [3]: 4.13 nM
IC50 [4]: < 5 nM
IC50 [6]: 3.36 nM

B3: H10C7+L25B8 (affinity-matured variant of hS2C3) (antibody, V domains shown)
VH: QVQLVQSGAEVKKPGASVKVSCKASGYTFTDYYMHWVRQAPGQRLEWMGWIYPGSGNTRYSQKFKDRVTMTRDTSTSTVYMELSSLRSEDTAVYYCARREEDYFDYWGQGTLVTVSS
VL: DIVMTQSPDSLAVSLGERATINCKSSQSLLYSSNKKNYLTWYQQKPGQPPKLLIYWASTRESGVPDRFSGSGSGTDFTLTISSLQAEDVAVYYCQQFYAYPISFGQGTKLEIK
notes: Humanized monoclonal antibody
Kd [2]: 1.11 nM
koff [2]: 0.00115 s⁻¹
kon [2]: 1.03e+06 M⁻¹ s⁻¹
IC50 [3]: 4.51 nM
IC50 [4]: < 5 nM

B4: S4D12 (mouse scFv clone displayed on phage) (scFv)
scFv: QVQLQQPGAELVKPGASVKMSCKASGYTFTNYWMHWVKQRPGQGLEWIGVIAPSDNYTNYNQKFQGKATLTVDTSSSTAYMQLSSLTSEDSAVYYCTKGGKYSMDYWGQGTSVTVSSGGGGSGGGGSGGGGSDVLMTQTPLSLPVSLGDQASISCRSSQSIVHSNGNTYLEWYLQKPGQSPKLLIYKVSNRFSGVPDRFSGSGSGTDFTLKISRVEAEDLGVYYCFQGSHVPFTFGSGTKLEIK
notes: also called 鼠单链抗体S4D12; 鼠单抗S4D12
binding result [7]: binds

B5: S2C3-IgG4 (mouse-human chimeric antibody, human IgG4-kappa) (antibody, V domains shown)
VH: QIQLQQSGPELVKPGASVKISCKASGYTFTDYYMHWVKQRPGQGLEWIGWINPSSGNTKYAQKFQDKATLTVATSSSTAYMQLSSLTSEDTAVYFCARREEDYFDYWGQGTLVTVSS
VL: DIVMSQSPSSLAVSVGEKVTMSCKSSQSLLYPSNKKNYLTWYQQKPGQSPKLLIYWASTRESGVPDRFTGSGSGTDFTLTISSVKAEDLAVYYCQEYYAYPLSFGAGTKLEIKR
notes: also called 人-鼠嵌合单抗S2C3
Kd [5]: 18.5 nM
koff [5]: 0.0205 s⁻¹
kon [5]: 1.11e+06 M⁻¹ s⁻¹
IC50 [8]: 2 to 5 nM
IC50 [9]: 5.19 nM
Kd [10]: 25.1 nM
koff [10]: 0.0222 s⁻¹
kon [10]: 886000 M⁻¹ s⁻¹

B6: S2C3 (mouse scFv clone displayed on phage) (scFv)
scFv: QIQLQQSGPELVKPGASVKISCKASGYTFTDYYMHWVKQRPGQGLEWIGWINPSSGNTKYAQKFQDKATLTVATSSSTAYMQLSSLTSEDTAVYFCARREEDYFDYWGQGTLVTVSSGGGGSGGGGSGGGGSDIVMSQSPSSLAVSVGEKVTMSCKSSQSLLYPSNKKNYLTWYQQKPGQSPKLLIYWASTRESGVPDRFTGSGSGTDFTLTISSVKAEDLAVYYCQEYYAYPLSFGAGTKLEIK
notes: also called 鼠单链抗体S2C3; 鼠单抗S2C3
binding result [7]: binds

B7: S2H2 (mouse scFv clone displayed on phage) (scFv)
scFv: QVQLQQPGAEVVKPGASVKMSCKASGYTLSSYWMHWVKQRPGQGLEWIGTIDRSDSYISYNQKFKGKATLTVDTSSGTVYMQLNSLTSEDSAVYYCTRGGPYGSKMMDNWGQGTSVTVSSGGGGSGGGGSGGGGSDIQMNQSPSSLSASLGDTITITCHASQNINVWLSWYQQKPGNIPKLLIYKASNLHTGVPSRFSGSGSGTGFTLTISSLQPEDIATYYCQQGQSYPLTFGTGTKLELK
notes: also called 鼠单链抗体S2H2; 鼠单抗S2H2
binding result [7]: binds

B8: S2H2-IgG4 (mouse-human chimeric antibody, human IgG4-kappa) (antibody, V domains shown)
VH: QVQLQQPGAEVVKPGASVKMSCKASGYTLSSYWMHWVKQRPGQGLEWIGTIDRSDSYISYNQKFKGKATLTVDTSSGTVYMQLNSLTSEDSAVYYCTRGGPYGSKMMDNWGQGTSVTVSS
VL: DIQMNQSPSSLSASLGDTITITCHASQNINVWLSWYQQKPGNIPKLLIYKASNLHTGVPSRFSGSGSGTGFTLTISSLQPEDIATYYCQQGQSYPLTFGTGTKLELKR
notes: also called 人-鼠嵌合单抗S2H2
IC50 [8]: 2 to 5 nM
IC50 [9]: 2.08 nM
Kd [10]: 9.71 nM
koff [10]: 0.00696 s⁻¹
kon [10]: 717000 M⁻¹ s⁻¹

B9: Hu5F9-G4 (humanized anti-CD47 monoclonal antibody) (antibody, human IgG4, V domains shown)
VH: QVQLVQSGAEVKKPGASVKVSCKASGYTFTNYNMHWVRQAPGQRLEWMGTIYPGNDDTSYNQKFKDRVTITADTSASTAYMELSSLRSEDTAVYYCARGGYRAMDYWGQGTLVTVSS
VL: DIVMTQSPLSLPVTPGEPASISCRSSQSIVYSNGNTYLGWYLQKPGQSPQLLIYKVSNRFSGVPDRFSGSGSGTDFTLKISRVEAEDVGVYYCFQGSHVPYTFGQGTKLEIK
notes: Prepared after US 9017675B2; labelled IgG4; also called Hu5F9-IgG4; hu5F9-IgG4
IC50 [6]: 4.16 nM
IC50 [9]: 9.61 nM

B10: hS4D12-IgG4 (humanized S4D12) (antibody, V domains shown)
VH: QVQLVQSGAEVKKPGASVKVSCKASGYTFTNYWMHWVRQRPGQGLEWIGVIAPSDNYTNYNQKFQGRVTMTVDTSTSTVYMELSSLRSEDTAVYYCTKGGKYSMDYWGQGTTVTVSS
VL: DIVMTQTPLSLPVTPGEPASISCRSSQSIVHSNGNTYLEWYLQKPGQSPQLLIYKVSNRFSGVPDRFSGSGSGTDFTLKISRVEAEDVGVYYCFQGSHVPFTFGQGTKLEIK
Kd [5]: 9.6 nM
koff [5]: 0.0118 s⁻¹
kon [5]: 1.22e+06 M⁻¹ s⁻¹
IC50 [4]: < 5 nM
IC50 [6]: 2.68 nM

B11: S4D12-IgG4 (mouse-human chimeric antibody, human IgG4-kappa) (antibody, V domains shown)
VH: QVQLQQPGAELVKPGASVKMSCKASGYTFTNYWMHWVKQRPGQGLEWIGVIAPSDNYTNYNQKFQGKATLTVDTSSSTAYMQLSSLTSEDSAVYYCTKGGKYSMDYWGQGTSVTVSS
VL: DVLMTQTPLSLPVSLGDQASISCRSSQSIVHSNGNTYLEWYLQKPGQSPKLLIYKVSNRFSGVPDRFSGSGSGTDFTLKISRVEAEDLGVYYCFQGSHVPFTFGSGTKLEIKR
notes: also called 人-鼠嵌合单抗S4D12
Kd [5]: 8.56 nM
koff [5]: 0.011 s⁻¹
kon [5]: 1.28e+06 M⁻¹ s⁻¹
IC50 [9]: 3.89 nM
Kd [10]: 10.1 nM
koff [10]: 0.0142 s⁻¹
kon [10]: 1.41e+06 M⁻¹ s⁻¹

Reference: patent CN108503708A (BEIJING WISDOMAB BIOTECHNOLOGY CO LTD; GENRIX SHANGHAI …, dated 2018)
